From patent US7314754B2, “Polynucleotide encoding the hOT7T175 G protein coupled receptor” (Takeda Pharmaceutical Company Limited, priority 1998, dated 2008) come the findings set out here.

No end group written: not given here.

In this experiment the target is T1, rOT7T175 (Rattus norvegicus, UniProt Q924U1).
T1 construct: expressed in transfected cells
Briefly: Measurement of intracellular Ca ion concentration-increasing activity using FLIPR. It is filed as cell-based. Particulars: rOT7T175-23 cells; final peptide concentration 1×10^−5 M to 1×10^−10 M. As for the experimental part:
The stable expression cell line rOT7T175 was obtained by transduction of expression plasmid pAK-rOT175 for animal cell into CHO/dhfr^− cells, using CellPhect Transfection Kit (Amersham Pharmacia Biotech, Inc.). First, […] of Buffer A (attached to CellPhect Transfection Kit) was added to […] of plasmid DNA dissolved in […] of distilled water followed by stirring. After the mixture was settled for 10 minutes, […] of Buffer B (attached to CellPhect Transfection Kit) was added to the mixture, which was vigorously stirred to form liposomes containing the DNA. Then 4×10^5 CHO/dhfr^− cells (obtained from ATCC) were inoculated on a 60 mm Petri dish. After culturing the cells in Ham's F-12 medium (Nissui Seiyaku Co., Ltd.) supplemented with 10% fetal bovine serum (BIO WHITTAKER, Inc.) at 37° C. for 2 days in 5% carbon dioxide gas, […] of the liposomes were dropwise added to the cells in the Petri dish. After culturing the cells at 37° C. for 6 hours in 5% carbon dioxide gas, the cells were washed twice with serum-free Ham's F-12 medium and 3 ml of 15% glycerol was added to the cells in the Petri dish followed by treatment for 2 minutes. […]
The intracellular Ca ion concentration-increasing activity of the synthetic peptides obtained in (1-1) described above in rOT7T175-23 and ETA24was determined, using FLIPR (Molecular Devices, Inc.). […]

T1 sequence (Q924U1 whole entry R383V): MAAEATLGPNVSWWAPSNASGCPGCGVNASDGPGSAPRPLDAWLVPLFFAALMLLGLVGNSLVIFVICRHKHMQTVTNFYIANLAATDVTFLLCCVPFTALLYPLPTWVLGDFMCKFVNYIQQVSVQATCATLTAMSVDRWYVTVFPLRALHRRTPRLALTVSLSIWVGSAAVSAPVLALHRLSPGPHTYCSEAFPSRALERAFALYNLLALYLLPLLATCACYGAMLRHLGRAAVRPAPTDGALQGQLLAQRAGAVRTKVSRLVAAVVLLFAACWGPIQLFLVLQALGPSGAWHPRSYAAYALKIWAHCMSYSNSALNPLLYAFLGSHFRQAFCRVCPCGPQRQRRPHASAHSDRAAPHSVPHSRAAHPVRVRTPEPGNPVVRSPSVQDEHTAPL

Take “PEPTIDE (40-54): C-terminal peptide of PEPTIDE (1-54), residues 40-54, synthesized on p-methyl BHA resin (KDLPNYNWNSFGLRF-NH2)”: the “intracellular Ca ion concentration-increasing activity, comparison of dose response curves (FIG. 9)” value is listed as “highest activity”.
